Experimental data taken from the supplement of paper PMC9112550, “Optimization of the antimicrobial peptide Bac7 by deep mutational scanning” (BMC Biology, 2022).

tested on: Escherichia coli TOP10; test: shrunken log2 fold change of peptide-encoding DNA abundance (4.5 h post-induction vs induction); higher = less antimicrobial activity (less host growth inhibition); settings: time post-induction: 4.5 h; library: site-saturation at positions 5, 18, 19, 20
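Further: peptides expressed intracellularly from a pBAD plasmid library in pooled LB shake-flask culture, induced with 0.3% L-arabinose, DNA abundance read by NGS, three biological replicates, DESeq2 with apeglm shrinkage.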

In order of rising “shrunken log2 fold change” value:
1. RRIRCRPPRLPRPRPRPHIFPRP  -1.15
2. RRIRCRPPRLPRPRPRPIYHPRP  -0.905
3. RRIRCRPPRLPRPRPRPHYKPRP  -0.894
4. RRIRCRPPRLPRPRPRPHHKPRP  -0.857
5. RRIRCRPPRLPRPRPRPFLCPRP  -0.786
6. RRIRCRPPRLPRPRPRPHKCPRP  -0.721
7. RRIRCRPPRLPRPRPRPHSMPRP  -0.718
8. RRIRCRPPRLPRPRPRPFNNPRP  -0.701
9. RRIRCRPPRLPRPRPRPDMIPRP  -0.69
10. RRIRCRPPRLPRPRPRPHYDPRP  -0.687
11. RRIRCRPPRLPRPRPRPFAIPRP  -0.682
12. RRIRCRPPRLPRPRPRPFEQPRP  -0.669
13. RRIRCRPPRLPRPRPRPEFHPRP  -0.664
14. RRIRCRPPRLPRPRPRPHFCPRP  -0.649
15. RRIRCRPPRLPRPRPRPIHKPRP  -0.638
16. RRIRCRPPRLPRPRPRPHSVPRP  -0.613
17. RRIRCRPPRLPRPRPRPIMLPRP  -0.587
18. RRIRCRPPRLPRPRPRPHCDPRP  -0.579
19. RRIRCRPPRLPRPRPRPHPCPRP  -0.579
20. RRIRCRPPRLPRPRPRPCSFPRP  -0.57
21. RRIRCRPPRLPRPRPRPFLLPRP  -0.569
22. RRIRCRPPRLPRPRPRPFLTPRP  -0.565
23. RRIRCRPPRLPRPRPRPHNQPRP  -0.565
24. RRIRCRPPRLPRPRPRPDMYPRP  -0.561
25. RRIRCRPPRLPRPRPRPCSGPRP  -0.513
26. RRIRCRPPRLPRPRPRPFYPPRP  -0.511
27. RRIRCRPPRLPRPRPRPHCPPRP  -0.508
28. RRIRCRPPRLPRPRPRPIVSPRP  -0.506
29. RRIRCRPPRLPRPRPRPINDPRP  -0.505
30. RRIRCRPPRLPRPRPRPHRIPRP  -0.492
31. RRIRCRPPRLPRPRPRPFFIPRP  -0.484
32. RRIRCRPPRLPRPRPRPHILPRP  -0.476
33. RRIRCRPPRLPRPRPRPFHSPRP  -0.458
34. RRIRCRPPRLPRPRPRPGHIPRP  -0.458
35. RRIRCRPPRLPRPRPRPCVKPRP  -0.439
36. RRIRCRPPRLPRPRPRPGHHPRP  -0.439
37. RRIRCRPPRLPRPRPRPDLMPRP  -0.424
38. RRIRCRPPRLPRPRPRPFLMPRP  -0.422
39. RRIRCRPPRLPRPRPRPHSPPRP  -0.422
40. RRIRCRPPRLPRPRPRPKFTPRP  -0.391
41. RRIRCRPPRLPRPRPRPIPVPRP  -0.376
42. RRIRCRPPRLPRPRPRPDYKPRP  -0.375
43. RRIRCRPPRLPRPRPRPINLPRP  -0.355
44. RRIRCRPPRLPRPRPRPFDFPRP  -0.342
45. RRIRCRPPRLPRPRPRPETYPRP  -0.34
46. RRIRCRPPRLPRPRPRPDDHPRP  -0.338
47. RRIRCRPPRLPRPRPRPDGFPRP  -0.333
48. RRIRCRPPRLPRPRPRPIFKPRP  -0.323
49. RRIRCRPPRLPRPRPRPEQYPRP  -0.322
50. RRIRCRPPRLPRPRPRPHLKPRP  -0.322
51. RRIRCRPPRLPRPRPRPFFYPRP  -0.32
52. RRIRCRPPRLPRPRPRPFRVPRP  -0.32
53. RRIRCRPPRLPRPRPRPGDLPRP  -0.314
54. RRIRCRPPRLPRPRPRPIQYPRP  -0.308
55. RRIRCRPPRLPRPRPRPFTTPRP  -0.286
56. RRIRCRPPRLPRPRPRPINGPRP  -0.282
57. RRIRCRPPRLPRPRPRPCSNPRP  -0.274
58. RRIRCRPPRLPRPRPRPFPMPRP  -0.274
59. RRIRCRPPRLPRPRPRPGYGPRP  -0.273
60. RRIRCRPPRLPRPRPRPKDNPRP  -0.273
61. RRIRCRPPRLPRPRPRPKLNPRP  -0.265
62. RRIRCRPPRLPRPRPRPGIQPRP  -0.248
63. RRIRCRPPRLPRPRPRPHNTPRP  -0.246
64. RRIRCRPPRLPRPRPRPDVHPRP  -0.241
65. RRIRCRPPRLPRPRPRPEHKPRP  -0.221
66. RRIRCRPPRLPRPRPRPDCNPRP  -0.219
67. RRIRCRPPRLPRPRPRPCWGPRP  -0.195
68. RRIRCRPPRLPRPRPRPFQDPRP  -0.169
69. RRIRCRPPRLPRPRPRPGNLPRP  -0.167
70. RRIRCRPPRLPRPRPRPIDKPRP  -0.161
71. RRIRCRPPRLPRPRPRPITCPRP  -0.159
72. RRIRCRPPRLPRPRPRPFNGPRP  -0.148
73. RRIRCRPPRLPRPRPRPFNVPRP  -0.146
74. RRIRCRPPRLPRPRPRPIPWPRP  -0.146
75. RRIRCRPPRLPRPRPRPDMAPRP  -0.145
76. RRIRCRPPRLPRPRPRPGMLPRP  -0.135
77. RRIRCRPPRLPRPRPRPDWGPRP  -0.134
78. RRIRCRPPRLPRPRPRPDIIPRP  -0.132
79. RRIRCRPPRLPRPRPRPGNPPRP  -0.132
80. RRIRCRPPRLPRPRPRPFKWPRP  -0.115
81. RRIRCRPPRLPRPRPRPGLMPRP  -0.102
82. RRIRCRPPRLPRPRPRPHPKPRP  -0.102
83. RRIRCRPPRLPRPRPRPECNPRP  -0.0881
84. RRIRCRPPRLPRPRPRPFHKPRP  -0.0775
85. RRIRCRPPRLPRPRPRPIKTPRP  -0.0653
86. RRIRCRPPRLPRPRPRPCVHPRP  -0.0561
87. RRIRCRPPRLPRPRPRPKLPPRP  -0.0559
88. RRIRCRPPRLPRPRPRPECTPRP  -0.0491
89. RRIRCRPPRLPRPRPRPGIYPRP  -0.0438
90. RRIRCRPPRLPRPRPRPFAEPRP  -0.0347
91. RRIRCRPPRLPRPRPRPFTIPRP  -0.0284
92. RRIRCRPPRLPRPRPRPEKWPRP  -0.0207
93. RRIRCRPPRLPRPRPRPDDRPRP  -0.0204
94. RRIRCRPPRLPRPRPRPENVPRP  -0.0137
95. RRIRCRPPRLPRPRPRPFQSPRP  -0.0129
96. RRIRCRPPRLPRPRPRPHDIPRP  -0.00735
97. RRIRCRPPRLPRPRPRPIGYPRP  -0.00724
98. RRIRCRPPRLPRPRPRPDEGPRP  -0.00232
99. RRIRCRPPRLPRPRPRPITAPRP  -3.59e-05
100. RRIRCRPPRLPRPRPRPFCEPRP  0.000102
101. RRIRCRPPRLPRPRPRPDFRPRP  0.00204
102. RRIRCRPPRLPRPRPRPEGLPRP  0.0021
103. RRIRCRPPRLPRPRPRPEMFPRP  0.00455
104. RRIRCRPPRLPRPRPRPIPEPRP  0.00841
105. RRIRCRPPRLPRPRPRPFDDPRP  0.0116
106. RRIRCRPPRLPRPRPRPELTPRP  0.0136
107. RRIRCRPPRLPRPRPRPENCPRP  0.0153
108. RRIRCRPPRLPRPRPRPDVDPRP  0.0251
109. RRIRCRPPRLPRPRPRPFARPRP  0.0264
110. RRIRCRPPRLPRPRPRPEKGPRP  0.0373
111. RRIRCRPPRLPRPRPRPFKGPRP  0.0401
112. RRIRCRPPRLPRPRPRPDMHPRP  0.0405
113. RRIRCRPPRLPRPRPRPEMKPRP  0.0473
114. RRIRCRPPRLPRPRPRPFWVPRP  0.0496
115. RRIRCRPPRLPRPRPRPKGEPRP  0.0643
116. RRIRCRPPRLPRPRPRPGRKPRP  0.0644
117. RRIRCRPPRLPRPRPRPISVPRP  0.0666
118. RRIRCRPPRLPRPRPRPGMSPRP  0.0961
119. RRIRCRPPRLPRPRPRPHGRPRP  0.0979
120. RRIRCRPPRLPRPRPRPIWQPRP  0.102
121. RRIRCRPPRLPRPRPRPGRPPRP  0.106
122. RRIRCRPPRLPRPRPRPKAAPRP  0.115
123. RRIRCRPPRLPRPRPRPEFMPRP  0.118
124. RRIRCRPPRLPRPRPRPGLPPRP  0.143
125. RRIRCRPPRLPRPRPRPIPLPRP  0.148
126. RRIRCRPPRLPRPRPRPIPQPRP  0.153
127. RRIRCRPPRLPRPRPRPEWGPRP  0.163
128. RRIRCRPPRLPRPRPRPKENPRP  0.192
129. RRIRCRPPRLPRPRPRPEGDPRP  0.193
130. RRIRCRPPRLPRPRPRPDGGPRP  0.196
131. RRIRCRPPRLPRPRPRPICWPRP  0.202
132. RRIRCRPPRLPRPRPRPEKCPRP  0.209
133. RRIRCRPPRLPRPRPRPGPLPRP  0.213
134. RRIRCRPPRLPRPRPRPGCPPRP  0.239
135. RRIRCRPPRLPRPRPRPESDPRP  0.242
136. RRIRCRPPRLPRPRPRPEPNPRP  0.265
137. RRIRCRPPRLPRPRPRPIWRPRP  0.285
138. RRIRCRPPRLPRPRPRPGLCPRP  0.291
139. RRIRCRPPRLPRPRPRPEWVPRP  0.293
140. RRIRCRPPRLPRPRPRPGHAPRP  0.297
141. RRIRCRPPRLPRPRPRPIQTPRP  0.299
142. RRIRCRPPRLPRPRPRPHQWPRP  0.321
143. RRIRCRPPRLPRPRPRPDIAPRP  0.38
144. RRIRCRPPRLPRPRPRPDNWPRP  0.409
145. RRIRCRPPRLPRPRPRPDAFPRP  0.467
146. RRIRCRPPRLPRPRPRPKGAPRP  0.492
147. RRIRCRPPRLPRPRPRPECEPRP  0.757
148. RRIRCRPPRLPRPRPRPERPPRP  0.777
149. RRIRCRPPRLPRPRPRPEEPPRP  0.847
150. RRIRCRPPRLPRPRPRPHPLPRP  0.989
